Biological target: the molecule itself
Assay: cryo-EM structure

B1: RNA polymerase of influenza A/Brevig Mission/1/1918 (H1N1) virus, heterotrimer of PA, PB1 and PB2 (complex)
chain 1: […]
chain 2: MDVNPTLLFLKVPAQNAISTTFPYTGDPPYSHGTGTGYTMDTVNRTHQYSEKGRWTTNTETGAPQLNPIDGPLPEDNEPSGYAQTDCVLEAMAFLEESHPGIFENSCLETMEVVQQTRVDKLTQGRQTYDWTLNRNQPAATALANTIEVFRSNGLTANESGRLIDFLKDVMESMDKEEMEITTHFQRKRRVRDNMTKKMVTQRTIGKKKQRLNKRSYLIRALTLNTMTKDAERGKLKRRAIATPGMQIRGFVYFVETLARSICEKLEQSGLPVGGNEKKAKLANVVRKMMTNSQDTELSFTITGDNTKWNENQNPRMFLAMITYITRNQPEWFRNVLSIAPIMFSNKMARLGKGYMFESKSMKLRTQIPAEMLASIDLKYFNDSTRKKIEKIRPLLIDGTASLSPGMMMGMFNMLSTVLGVSILNLGQKRYTKTTYWWDGLQSSDDFALIVNAPNHEGIQAGVDRFYRTCKLLGINMSKKKSYINRTGTFEFTSFFYRYGFVANFSMELPSFGVSGINESADMSIGVTVIKNNMINNDLGPATAQMALQLFIKDYRYTYRCHRGDTQIQTRRSFEIKKLWEQTRSKAGLLVSDGGPNLYNIRNLHIPEVCLKWELMDEDYQGRLCNPLNPFVSHKEIESVNNAVMMPAHGPAKNMEYDAVATTHSWIPKRNRSILNTSQRGILEDEQMYQKCCNLFEKFFPSSSYRRPVGISSMVEAMVSRARIDARIDFESGRIKKEEFAEIMKICSTIEELRRQK
chain 3: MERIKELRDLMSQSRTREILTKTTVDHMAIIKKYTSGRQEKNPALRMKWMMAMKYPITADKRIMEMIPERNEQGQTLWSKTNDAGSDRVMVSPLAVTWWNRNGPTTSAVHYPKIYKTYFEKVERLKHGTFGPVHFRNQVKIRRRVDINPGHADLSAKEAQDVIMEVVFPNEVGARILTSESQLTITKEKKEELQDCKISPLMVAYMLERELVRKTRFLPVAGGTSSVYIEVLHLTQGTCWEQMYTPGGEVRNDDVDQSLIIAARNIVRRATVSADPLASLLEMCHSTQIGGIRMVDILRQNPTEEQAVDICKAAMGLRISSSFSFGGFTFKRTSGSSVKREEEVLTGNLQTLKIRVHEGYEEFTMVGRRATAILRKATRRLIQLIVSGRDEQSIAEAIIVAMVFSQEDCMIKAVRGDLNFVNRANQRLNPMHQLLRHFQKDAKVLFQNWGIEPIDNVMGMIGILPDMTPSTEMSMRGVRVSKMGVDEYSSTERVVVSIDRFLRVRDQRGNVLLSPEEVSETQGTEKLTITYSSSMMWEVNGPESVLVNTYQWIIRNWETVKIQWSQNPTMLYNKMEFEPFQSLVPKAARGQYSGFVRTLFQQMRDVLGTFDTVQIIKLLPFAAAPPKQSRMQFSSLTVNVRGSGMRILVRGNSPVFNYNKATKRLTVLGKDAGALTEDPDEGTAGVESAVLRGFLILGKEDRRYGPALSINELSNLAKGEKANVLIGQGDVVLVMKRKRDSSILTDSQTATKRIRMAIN
notes: also called 1918 polymerase; 1918 pandemic influenza virus polymerase; copies: + +
Q: Does B1 bind?
A: Result: binds
